Values joined by “and” are separate entries in the source; they are usually repeats but may differ in a detail not shown here. Equal values may be shown once.
Columns and labels:
[1] = biological target: Hcp1 (hemolysin-coregulated protein 1) of Burkholderia pseudomallei, recombinant wildtype (B. pseudomallei); test: dynamic light scattering; 8 mg/mL; apparent molecular weight in solution
[2] = biological target: Hcp1 (hemolysin-coregulated protein 1) of Burkholderia pseudomallei, recombinant wildtype (B. pseudomallei); test: AUC

## Hcp1 (hemolysin-coregulated protein 1) of Burkholderia pseudomallei, recombinant wildtype (natural protein)
[1]
  stoichiometry N: 12
[2]
  stoichiometry N: 6 and 12
